Results from patent US20090062180A1 (TEL AVIV UNIVERSITY FUTURE TECHNOLOGY DEVELOPMENT L P, published 2009).
Square brackets hold non-standard residues; d marks the D form. Ends that are not written are not given here. * marks the point of attachment. Myristoyl = CCCCCCCCCCCCCC(=O)*; pS = N[C@@H](COP(=O)(O)O)C(=O)O

What was measured:
[1] = molecular target: T1, Purified recombinant rabbit GSK-3β (glycogen synthase kinase-3β) (rabbit, UniProt A0A5F9DUX8 1-420); assay: Lineweaver-Burk analysis of the in vitro GSK-3 kinase assay; competitive against PGS-1 peptide substrate
Experimental: The results represent phosphate incorporation into PGS-1 peptide substrate (CPM). […] Each point is a mean of duplicate samples.
In vitro inhibition assays: Purified recombinant rabbit GSK-30 (Eldar-Finkelman et al., 1996) was incubated with peptide substrate PGS-1 ([…](p)EDEEE) (SEQ ID NO:15) and with a peptide inhibitor at indicated concentrations. The reaction mixture included Tris 50 mM (pH=7.3), 10 mM MgAc, ³²P[γ-ATP] (100 μM), 0.01% β-mercaptoethanol, and was incubated for 10 minutes at 30° C. Reactions were spotted on phosphocellulose paper (p81), washed with 100 mM phosphoric acid, and counted for radioactivity (as described in Eldar-Finkelman et al., 1996).

[2] = molecular target: mitogen activated protein kinase (MAPK); assay: cell-based or functional assay
[3] = molecular target: catalytic subunit of cAMP dependent protein kinase (PKA); assay: cell-based or functional assay
[4] = molecular target: Cyclic dependent protein kinase, cdc2; assay: cell-based or functional assay
[5] = molecular target: Protein kinase C-δ; assay: cell-based or functional assay
[6] = molecular target: Protein kinase B (PKB); assay: cell-based or functional assay
[7] = molecular target: casein kinase-2 (CK-2); assay: cell-based or functional assay
[8] = molecular target: T1, Purified recombinant rabbit GSK-3β …; assay: cell-based or functional assay
[9] = molecular target: T1, Purified recombinant rabbit GSK-3β …; assay: cell-based or functional assay; remark: listed apart in the source
[10] = molecular target: endogenous GSK-3 (in HEK 293 cells); assay: cell-based or functional assay

## KEAPPAPPQ[pS]P (also called peptide 9) [Peptide No. 9 KEAPPAPPQS(p)P (L803)]
[1]
  Ki: 70 µM
[2]
  % Maximal activity (kinase activity with 200 µM L803): 106%
[3]
  % Maximal activity (kinase activity with 200 µM L803): 86%
[4]
  % Maximal activity (kinase activity with 200 µM L803): 90%
[5]
  % Maximal activity (kinase activity with 200 µM L803): 111%
[6]
  % Maximal activity (kinase activity with 200 µM L803): 91%
[7]
  % Maximal activity (kinase activity with 200 µM L803): 117%
[8]
  IC50 (in vitro GSK-3 kinase inhibition, PGS-1 substrate): 150 µM

## PAPPQ[pS]P [Peptide No. 12 PAPPQS(p)P]
[9]
  Inhibitor functionality (IC50): > 800 µM

## Myristoyl-GKEAPPAPPQ[pS]P [L803-mts (N-Myristol-GKEAPPAPPQS(p)P)]
[8]
  IC50 (comparative GSK-3β inhibition assay, PGS-1 substrate; FIG. 4): 40 µM
  IC50 (in vitro GSK-3 kinase inhibition, PGS-1 substrate; FIGS. 3a-b): 40 µM
[10]
  glycogen synthase activity in HEK 293 cells: 2.5 fold
